2 molecules from patent publication US11555069B2, “Cognitive function improving agent” (Kao Corporation, priority 2016, dated 2023) can be followed below.

Test [1] has as its system db/db mice. In words: Novel object recognition (long-term memory) test, Example 1. The format is in vivo, mouse. As to conditions: db/db mice 30-week-old, i.p. twice a week, 15 days after start (after six administrations); GIP 5 nmol/kg, anti-GIP antibody 1 mg/kg; FIG. 3. How it is done:
(§1) Six-week-old leptin receptor deficient C57BLKS/J male mice (db/db mice, Oriental Yeast Co., Ltd.) were transferred (room temperature: 23° C., humidity: 55±10%, light period: 7:00 to 19:00) and were fed with food and water ad libitum. The food was CE-2 (CLEA Japan, Inc.), and the mice were acclimated for 2 weeks under the above-mentioned environment and were then used for testing.
(§2) Mouse-derived GIP (manufactured by AnaSpec, Inc.) was dissolved in physiological saline at a concentration of 500 nM to give a GIP solution. […]
The test was performed 5 days before the start of the administration and 15 days after the start of the administration (after six administrations) to measure the long-term memory and learning ability (reference memory). […] On the following day, two identical objects (rubber objects wrapped with blue rubber tape: columns each having 4 cm diameter and 3.5 cm height) were placed in the box (at a position with a space of 10 cm in length and 10 cm in width from the wall), and the behavior of the mouse was video-recorded for 5 minutes to measure the number of recognitions (the number of times the mouse approached each object within 1 cm) (training trial, on the 14th day from the start of the administration). […] The score of long-term memory and learning ability was evaluated by the recognition rate of the novel object in the retention trial (see the following calculation formula). […]

In test [2] the test system is db/db mice. In words: Y-maze (short-term memory) test, Example 1. The format is in vivo, mouse. To be noted: db/db mice 30-week-old, i.p. twice a week, 20 days after start (after seven administrations); GIP 5 nmol/kg, anti-GIP antibody 1 mg/kg; FIG. 2. On the procedure:
as §1, §2
(§3) The test was performed 10 days before the start of the administration and 20 days after the start of the administration (after seven administrations) to measure the short-term memory and learning ability (working memory). Each mouse was placed at an end of a plastic Y-maze (manufactured by Noldus Information Technology) in which the arms each have a length of 40 cm and a height of 12 cm and form an angle of 120° with each other, and the behavior of the mouse was video-recorded for 10 minutes to measure the order and the number of entries into the arms. The score of short-term memory and learning ability was evaluated by the spontaneous alternation behavior change rate (see the following calculation formula). […]

Test [3] concerns the target T1, GIP(3-42) (Homo sapiens, UniProt P09681).
T1 sequence (P09681 54-93): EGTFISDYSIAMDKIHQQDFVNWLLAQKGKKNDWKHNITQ
In words: Sandwich ELISA, cross-reactivity with inactive GIP. To be noted: biotinylated antibody 1 μg/mL as detection antibody, GIP 8.2 to 2000 pg/mL, FIG. 1. The test is classed as binding. How it is done:
(§4) The reactivity between the monoclonal antibody prepared in Production Example 1 and active GIP was confirmed by ELISA. The amino group of the anti-active GIP monoclonal antibody was biotinylated with NH2 group biotinylation kit (manufactured by Dojindo Laboratories). ELISA was performed using the produced biotinylated anti-active GIP monoclonal antibody at 1 μg/mL instead of a detection antibody, GIP detection antibody (biotinylated anti-total GIP monoclonal antibody), included in Human (total) GIP ELISA kit (manufactured by EMD Millipore Corporation). A […] dilution series of GIP(1-42) or GIP(3-42) was prepared in 6 steps (8.2 to 2000 pg/mL) with a 2000 pg/mL solution as the highest concentration. By using an anti-total GIP monoclonal antibody (included in Human GIP (total) ELISA kit manufactured by EMD Millipore Corporation) as a capture antibody, the biotinylated anti-active GIP monoclonal antibody as a detection antibody, and a peroxidase-streptavidin conjugate for detection, sandwich ELISA was conducted to prepare a calibration curve with GIP concentration on the X-axis and 450 nm-590 nm absorbance on the Y-axis (FIG. 1).
A general note: ELISA stands for enzyme-linked immunosorbent assay.

The subject of test [4] is C57BL/6J mice (107-week-old). In words: Y-maze (short-term memory) test in aged mice, Example 3. The format is in vivo, mouse. To be noted: aged C57BL/6J mice (107-week-old), 0.5 mg/kg i.p. once a week, 6 times; compared to non-administration and control group; FIG. 5. How it is done: (§5) Four-week-old C57BL/6J male mice (CLEA Japan, Inc.) were transferred (room temperature: 23° C., humidity: 55±10%, light period: 7:00 to 19:00) and were fed with food (D12450K, Research Diets, Inc.) and water ad libitum for 111 weeks.
(§6) The anti-active GIP antibody produced in Production Example 1 was dissolved in physiological saline at a concentration of 0.05 mg/mL to give an anti-GIP antibody solution.
(§7) Physiological saline (control group) or the anti-GIP antibody solution (0.5 mg/kg body weight) (anti-GIP antibody administration group) was intraperitoneally administered to C57BL/6J mice (107-week-old) once a week (9:00 to 10:00 a.m.), 6 times in total.
as §3, with “1 week” for “10 days”, “1 week” for “20 days”, “two administrations), 3 weeks after the start (after four administrations), and 5 weeks after the start (after six” for “seven”, “arms.” for “arms. The score of short-term memory and learning ability was evaluated by the spontaneous alternation behavior change rate (see the following calculation formula).”

Test [5] concerns C57BL/6J mice (107-week-old). Put plainly: Novel object recognition (long-term memory) test in aged mice, Example 3. The test is classed as in vivo, mouse. To be noted: aged C57BL/6J mice (107-week-old), 0.5 mg/kg i.p. once a week, 5 weeks after start; compared to control group; FIG. 6. How it is done: as §5, §6, §7
The test was performed 5 weeks after the start of the administration to measure the long-term memory and learning ability (reference memory). […] On the following day, two identical objects (rubber objects wrapped with blue rubber tape: columns each having 4 cm diameter and 3.5 cm height) were placed in the box (at a position with a space of 10 cm in length and 10 cm in width from the wall), and the behavior of the mouse was video-recorded for 5 minutes to measure the number of recognitions (the number of times the mouse approached each object within 1 cm) (training trial). […]

Test [6] addresses T2, GIP(1-42) (Homo sapiens, UniProt P09681).
T2 sequence (P09681 52-93): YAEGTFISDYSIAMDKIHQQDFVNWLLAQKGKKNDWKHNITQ
Put plainly: Sandwich ELISA, reactivity with active GIP. To be noted: biotinylated antibody 1 μg/mL as detection antibody, GIP 8.2 to 2000 pg/mL, FIG. 1. The format is binding. On the procedure: as §4

In test [7] the target is T3, PEGylated N-terminus 13 amino acids of inactive GIP (GIP(3-15)) (Homo sapiens, UniProt P09681).
T3 construct: made in house; host or cells: peptide synthesis (no expression host)
Put plainly: Hybridoma screening/cloning ELISA with immobilized antigen (2). The format is binding. As to conditions: hybridoma culture supernatant, immobilized PEGylated GIP(3-15). On the procedure: (§8) Polyethylene glycol was added to N-terminus 15 amino acids of active GIP (GIP(1-15)) (PEGylation (polyethylene glycolation)), and keyhole limpet hemocyanin (KLH) was then chemically bonded thereto to produce KLH-linked PEGylated GIP (1-15) as an immunogen.

The target in test [8] is T4, PEGylated N-terminus 15 amino acids of active GIP (GIP(1-15)) (Homo sapiens, UniProt P09681).
T4 construct: PEGylated N-terminus 15 amino acids of active GIP (GIP(1-15)); made in house; host or cells: peptide synthesis (no expression host)
Put plainly: Hybridoma screening/cloning ELISA with immobilized antigen (1). To be noted: hybridoma culture supernatant, immobilized PEGylated GIP(1-15). The format is binding. On the procedure:
as §8

Turning to “GIP: Mouse-derived GIP (manufactured by AnaSpec, Inc.) dissolved in physiological saline at 500 nM (YAEGTFISDYSIAMDKIRQQDFVNWLLAQRGKKSDWKHNITQ; Gastric inhibitory polypeptide; UniProt P48756 44-85, looked up)”, in test [1], the “novel object recognition rate (long-term memory and learning ability)” value was “a decrease in the novel object recognition rate (long-term memory and learning ability) was observed”. In test [2], the “spontaneous alternation behavior change rate (short-term memory and learning ability)” value is “a decrease in the spontaneous alternation behavior change rate (short-term memory and learning ability) was observed”.

B1: monoclonal antibody prepared in Production Example 1: anti-active GIP monoclonal antibody produced by hybridoma 9B9H5-B9 line; H-chain variable region SEQ ID NO: 2, L-chain variable region SEQ ID NO: … (antibody, listed as Mus musculus, V domains shown)
VH: QVQLQQPGAELVKPGASVKLSCKASGYTFTSFWMHWVIQRPGQGLEWIGEMNPSDGRTHFNEKFKTKATLTIDTSSNTAYMELNSLTSEDSAVYYCARRMEDWGQGTLVTVSA
VL: DIKMTQSPSSMYASLGERVTITCKASQDINSYLGWFQQKPGKSPKTLIYGANRLVDGVPSRFSGSGSGQDYSLTISSLEYDDMGIYYCLQYDEFPLTFGAGTKLELKR
For B1, the “cross-reactivity with GIP(3-42) (450 nm-590 nm absorbance)” value in test [3] is “does not show cross-reactivity with GIP(3-42)”. Moreover, the “spontaneous alternation behavior change rate (short-term memory and learning ability)” value in test [4] was “an increase in the spontaneous alternation behavior change rate (short-term memory and learning ability) was observed”. Also, in test [5], the “novel object recognition rate (long-term memory and learning ability)” value is “an increase in the novel object recognition rate (long-term memory and learning ability) was observed”. Further, the “reactivity with GIP(1-42) (450 nm-590 nm absorbance)” value in test [6] is “capable of specifically detecting GIP(1-42)”. Moreover, the “ELISA reaction with antigen (2) for measurement” value in test [7] is listed as “negative for the antigen (2)”. The “ELISA reaction with antigen (1) for measurement” value in test [8] was “positive for the antigen (1)”.
